This note sets out measurements from patent US20220195407, “OPTIMIZATION OF ENGINEERED MEGANUCLEASES FOR RECOGNITION SEQUENCES” (Precision BioSciences, Inc., published 2022).

Common to all, as to assay: cell_activity; CHO iGFFP reporter
In one data set the target is T1, LOX 3-4m.1946 (artificial (I-CreI derived)).
T1 chain: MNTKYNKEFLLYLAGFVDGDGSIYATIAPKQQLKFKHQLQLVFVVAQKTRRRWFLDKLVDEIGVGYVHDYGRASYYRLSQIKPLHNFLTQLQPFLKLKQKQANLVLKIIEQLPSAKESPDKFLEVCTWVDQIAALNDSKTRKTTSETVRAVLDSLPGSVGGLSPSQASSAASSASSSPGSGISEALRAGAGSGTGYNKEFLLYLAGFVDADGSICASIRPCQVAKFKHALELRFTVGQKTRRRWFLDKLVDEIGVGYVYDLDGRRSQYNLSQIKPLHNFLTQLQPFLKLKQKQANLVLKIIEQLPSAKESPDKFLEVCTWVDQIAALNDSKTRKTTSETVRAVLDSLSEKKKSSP
From the text: (§1) A CHO cell reporter system (see WO/2012/167192, FIG. 3) was used to determine whether the engineered meganucleases generated in these studies could recognize and cleave the modified LOX 3-4 recognition sequences in Table 87. To perform the assay, a pair of CHO cell reporter lines were produced, which carried a non-functional Green Fluorescent Protein (GFP) gene expression cassette integrated into the genome of the cell. The GFP gene in each cell line was interrupted by a pair of recognition sequences such that intracellular cleavage of either recognition sequence by a meganuclease would stimulate a homologous recombination event resulting in a functional GFP gene. In both cell lines, one of the recognition sequences was derived from the LOX 3-4 recognition sequence (i.e., those sequences disclosed in Table 87), and the second recognition sequence was specifically recognized by a control meganuclease called “CHO 23/24.” CHO reporter cells comprising a recognition sequence derived from the LOX 3-4 recognition sequence and the CHO 23/24 recognition sequence are referred to herein as “test cells.”
(§2) Novel engineered meganucleases derived from the LOX 3-4x.109 meganuclease were prepared by making amino acid substitutions at one or more positions in the first subunit and one or more positions in the second subunit. In addition, an R residue was inserted following position 264, which corresponds to position 73 of wild-type I-CreI.

A further data set addresses T2, LOX 3-4m.1876 (artificial (I-CreI derived)).
T2 chain: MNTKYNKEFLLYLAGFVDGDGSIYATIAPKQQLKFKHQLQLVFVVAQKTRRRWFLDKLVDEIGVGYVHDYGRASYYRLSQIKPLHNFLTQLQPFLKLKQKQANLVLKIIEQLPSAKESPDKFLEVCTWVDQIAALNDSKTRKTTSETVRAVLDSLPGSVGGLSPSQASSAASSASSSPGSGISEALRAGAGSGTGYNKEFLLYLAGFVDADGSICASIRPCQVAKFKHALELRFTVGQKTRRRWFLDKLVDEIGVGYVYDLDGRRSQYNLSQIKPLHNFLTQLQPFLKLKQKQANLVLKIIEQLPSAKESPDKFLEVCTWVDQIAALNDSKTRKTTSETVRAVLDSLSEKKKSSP
From the text: as §1, §2

A further data set concerns the target T3, LOX 3-4m.1941 (artificial (I-CreI derived)).
T3 chain: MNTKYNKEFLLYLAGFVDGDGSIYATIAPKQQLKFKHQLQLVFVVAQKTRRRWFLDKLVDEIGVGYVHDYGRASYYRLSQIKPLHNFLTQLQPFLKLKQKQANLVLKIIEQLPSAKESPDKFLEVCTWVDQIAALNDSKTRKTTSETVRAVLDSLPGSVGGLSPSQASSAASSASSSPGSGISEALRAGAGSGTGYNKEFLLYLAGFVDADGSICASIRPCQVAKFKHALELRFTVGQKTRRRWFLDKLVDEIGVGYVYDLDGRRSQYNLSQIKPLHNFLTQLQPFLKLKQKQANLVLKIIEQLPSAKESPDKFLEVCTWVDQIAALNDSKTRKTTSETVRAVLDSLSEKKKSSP
From the text: as §1, §2

In a further data set the target is T4, LOX 3-4m.1947 (artificial (I-CreI derived)).
T4 chain: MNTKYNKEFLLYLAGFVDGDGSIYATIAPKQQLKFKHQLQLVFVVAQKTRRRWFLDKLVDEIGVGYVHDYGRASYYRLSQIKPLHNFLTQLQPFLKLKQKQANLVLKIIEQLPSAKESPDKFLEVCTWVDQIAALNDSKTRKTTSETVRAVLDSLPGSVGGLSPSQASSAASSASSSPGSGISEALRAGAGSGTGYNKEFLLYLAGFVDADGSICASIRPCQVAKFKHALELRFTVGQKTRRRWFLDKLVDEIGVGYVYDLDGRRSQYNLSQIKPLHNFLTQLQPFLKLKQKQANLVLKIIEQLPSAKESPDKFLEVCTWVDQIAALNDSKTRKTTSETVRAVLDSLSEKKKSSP
From the text: as §1, §2

For another data set, the target named is T5, LOX 3-4m.1206 (artificial (I-CreI derived)).
T5 chain: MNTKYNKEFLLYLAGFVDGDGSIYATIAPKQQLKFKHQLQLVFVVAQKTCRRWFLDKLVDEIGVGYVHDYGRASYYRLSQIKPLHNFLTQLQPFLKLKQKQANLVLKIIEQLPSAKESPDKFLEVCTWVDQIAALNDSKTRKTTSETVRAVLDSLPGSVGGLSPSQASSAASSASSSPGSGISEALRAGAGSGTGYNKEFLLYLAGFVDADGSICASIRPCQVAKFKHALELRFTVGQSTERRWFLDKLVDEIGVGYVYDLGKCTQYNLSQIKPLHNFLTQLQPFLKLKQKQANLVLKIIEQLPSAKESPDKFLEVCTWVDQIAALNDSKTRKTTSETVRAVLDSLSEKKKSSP
From the text: as §1
(§3) Novel engineered meganucleases derived from the LOX 3-4x.109 meganuclease were prepared by making amino acid substitutions at one or more positions in the first subunit and one or more positions in the second subunit. These engineered meganucleases were then evaluated for cleavage of the LOX 3-4 recognition sequence modified to have an ACGT center sequence (SEQ ID NO: 136) in the CHO reporter assay according to Example 1.

A further data set addresses T6, LOX 3-4m.1158 (artificial (I-CreI derived)).
T6 chain: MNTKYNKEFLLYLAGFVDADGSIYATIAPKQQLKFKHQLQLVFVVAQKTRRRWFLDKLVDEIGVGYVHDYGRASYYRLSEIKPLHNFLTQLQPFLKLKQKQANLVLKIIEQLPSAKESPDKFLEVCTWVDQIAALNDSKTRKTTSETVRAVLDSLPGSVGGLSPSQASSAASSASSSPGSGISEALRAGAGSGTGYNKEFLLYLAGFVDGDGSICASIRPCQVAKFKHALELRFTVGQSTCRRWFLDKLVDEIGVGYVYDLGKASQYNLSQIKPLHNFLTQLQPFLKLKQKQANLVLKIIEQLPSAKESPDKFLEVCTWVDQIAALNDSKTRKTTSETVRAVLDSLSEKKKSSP
From the text: as §1, §3

The next data set addresses T7, LOX 3-4m.1153 (artificial (I-CreI derived)).
T7 chain: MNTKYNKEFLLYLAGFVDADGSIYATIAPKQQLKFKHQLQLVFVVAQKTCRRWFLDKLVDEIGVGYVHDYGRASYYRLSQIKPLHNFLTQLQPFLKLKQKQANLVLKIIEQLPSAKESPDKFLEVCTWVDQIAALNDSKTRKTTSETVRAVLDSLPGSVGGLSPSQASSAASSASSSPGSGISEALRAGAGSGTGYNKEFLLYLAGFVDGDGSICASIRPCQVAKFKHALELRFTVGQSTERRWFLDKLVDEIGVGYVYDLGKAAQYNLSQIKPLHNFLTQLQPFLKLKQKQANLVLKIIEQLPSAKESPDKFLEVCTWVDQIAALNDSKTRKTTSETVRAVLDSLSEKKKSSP
From the text: as §1, §3

In the next data set the target is T8, LOX 3-4m.1225 (artificial (I-CreI derived)).
T8 chain: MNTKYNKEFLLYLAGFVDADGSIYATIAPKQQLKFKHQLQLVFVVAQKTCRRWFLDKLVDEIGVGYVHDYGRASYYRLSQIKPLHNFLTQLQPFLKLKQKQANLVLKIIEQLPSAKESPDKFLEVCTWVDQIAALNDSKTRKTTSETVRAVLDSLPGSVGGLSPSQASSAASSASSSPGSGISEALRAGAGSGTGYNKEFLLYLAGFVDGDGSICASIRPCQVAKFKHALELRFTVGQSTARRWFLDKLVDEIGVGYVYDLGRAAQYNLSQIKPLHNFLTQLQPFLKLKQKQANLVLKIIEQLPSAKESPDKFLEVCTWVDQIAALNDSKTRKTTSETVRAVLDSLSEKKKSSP
From the text: as §1, §3

In a further data set the target is T9, LOX 3-4m.1123 (artificial (I-CreI derived)).
T9 chain: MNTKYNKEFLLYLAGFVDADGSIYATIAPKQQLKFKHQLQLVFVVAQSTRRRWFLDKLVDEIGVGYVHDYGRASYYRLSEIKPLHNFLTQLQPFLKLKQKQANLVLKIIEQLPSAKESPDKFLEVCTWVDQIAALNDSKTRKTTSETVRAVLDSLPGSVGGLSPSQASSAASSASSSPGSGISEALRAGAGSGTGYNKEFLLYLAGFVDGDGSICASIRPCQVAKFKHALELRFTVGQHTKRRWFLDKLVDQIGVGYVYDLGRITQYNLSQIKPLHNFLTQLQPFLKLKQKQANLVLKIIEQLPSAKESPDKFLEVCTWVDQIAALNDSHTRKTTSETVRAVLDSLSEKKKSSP
From the text: as §1
(§4) Novel engineered meganucleases derived from the LOX 3-4x.109 meganuclease were prepared by making amino acid substitutions at one or more positions in the first subunit and one or more positions in the second subunit. These engineered meganucleases were then evaluated for cleavage of the LOX 3-4 recognition sequence modified to have an ACGC center sequence (SEQ ID NO: 90) in the CHO reporter assay according to Example 1.

The target of a further data set is T10, LOX 3-4m.1052 (artificial (I-CreI derived)).
T10 chain: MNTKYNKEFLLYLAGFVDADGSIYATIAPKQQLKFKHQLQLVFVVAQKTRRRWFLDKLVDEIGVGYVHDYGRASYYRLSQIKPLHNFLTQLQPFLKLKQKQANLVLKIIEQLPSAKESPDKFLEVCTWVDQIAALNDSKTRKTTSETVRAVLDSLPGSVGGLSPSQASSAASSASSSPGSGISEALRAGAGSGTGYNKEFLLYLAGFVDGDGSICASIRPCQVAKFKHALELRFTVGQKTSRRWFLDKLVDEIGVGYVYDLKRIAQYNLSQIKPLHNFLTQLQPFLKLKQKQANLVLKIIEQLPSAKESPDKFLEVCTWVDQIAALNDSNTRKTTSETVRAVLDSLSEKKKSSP
From the text: as §1, §4

The target of another data set is T11, LOX 3-4m.1125 (artificial (I-CreI derived)).
T11 chain: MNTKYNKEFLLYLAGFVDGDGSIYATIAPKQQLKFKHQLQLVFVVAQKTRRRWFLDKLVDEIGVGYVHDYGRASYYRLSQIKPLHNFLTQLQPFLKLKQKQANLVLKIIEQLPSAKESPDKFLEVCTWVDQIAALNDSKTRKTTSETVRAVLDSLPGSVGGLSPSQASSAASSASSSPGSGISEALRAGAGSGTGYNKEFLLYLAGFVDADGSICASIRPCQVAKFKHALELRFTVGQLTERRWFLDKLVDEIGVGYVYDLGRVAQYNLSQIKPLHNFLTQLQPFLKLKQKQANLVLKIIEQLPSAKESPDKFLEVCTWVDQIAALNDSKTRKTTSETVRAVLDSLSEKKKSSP
From the text: as §1, §4

Another data set has as its target T12, LOX 3-4m.1069 (artificial (I-CreI derived)).
T12 chain: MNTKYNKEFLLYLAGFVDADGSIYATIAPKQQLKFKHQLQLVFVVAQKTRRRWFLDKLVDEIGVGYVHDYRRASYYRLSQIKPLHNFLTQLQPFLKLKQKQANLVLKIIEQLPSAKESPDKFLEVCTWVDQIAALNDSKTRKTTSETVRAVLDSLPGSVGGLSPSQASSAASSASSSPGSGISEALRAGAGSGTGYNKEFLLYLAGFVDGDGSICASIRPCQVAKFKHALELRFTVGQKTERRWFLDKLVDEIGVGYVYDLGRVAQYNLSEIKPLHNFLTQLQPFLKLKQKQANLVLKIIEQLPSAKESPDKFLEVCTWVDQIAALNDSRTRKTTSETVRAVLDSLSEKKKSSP
From the text: as §1, §4

B1: LOX 3-4 ACGG (dsDNA)
DNA 1: GTATAGCATACGGTATACGAAG
DNA 2: CTTCGTATACCGTATGCTATAC
As for B1, the activity in the data set with LOX 3-4m.1946 was determined as 10.8 % GFP; with LOX 3-4m.1876, 9.6 % GFP; with LOX 3-4m.1941, 10.1 % GFP; with LOX 3-4m.1947 it was 10.5 % GFP.

B2: LOX 3-4 ACGT (dsDNA)
DNA 1: GTATAGCATACGTTATACGAAG
DNA 2: CTTCGTATAACGTATGCTATAC
In the case of B2, the activity with LOX 3-4m.1206 amounted to 9.84 % GFP; with LOX 3-4m.1158, 9.19 % GFP; with LOX 3-4m.1153, 10.3 % GFP; with LOX 3-4m.1225, 10.6 % GFP.

B3: LOX 3-4 ACGC (dsDNA)
DNA 1: GTATAGCATACGCTATACGAAG
DNA 2: CTTCGTATAGCGTATGCTATAC
Take B3: the activity stood at 9.56 % GFP with LOX 3-4m.1123, 9.34 % GFP with LOX 3-4m.1052, 10.4 % GFP with LOX 3-4m.1125 and 10.3 % GFP with LOX 3-4m.1069.
